The target in assay [1] is T1, human angiopoietin-2 protein (Homo sapiens, UniProt O15123).
T1 construct: purchased R&D Systems
T1 sequence (O15123 19-496): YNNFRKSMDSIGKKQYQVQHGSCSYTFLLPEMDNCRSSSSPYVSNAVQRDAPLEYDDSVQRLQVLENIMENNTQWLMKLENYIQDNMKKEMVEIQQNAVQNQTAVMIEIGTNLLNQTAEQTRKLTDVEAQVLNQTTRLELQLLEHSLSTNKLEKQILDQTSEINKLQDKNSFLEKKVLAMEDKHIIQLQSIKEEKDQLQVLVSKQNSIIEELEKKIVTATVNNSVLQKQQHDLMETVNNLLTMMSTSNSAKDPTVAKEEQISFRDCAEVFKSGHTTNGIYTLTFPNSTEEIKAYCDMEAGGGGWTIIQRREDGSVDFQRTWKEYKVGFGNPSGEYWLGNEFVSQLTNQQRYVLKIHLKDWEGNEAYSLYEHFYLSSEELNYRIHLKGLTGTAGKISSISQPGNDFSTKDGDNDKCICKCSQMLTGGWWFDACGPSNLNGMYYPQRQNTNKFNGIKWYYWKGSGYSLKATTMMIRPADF
Put plainly: Competitive ELISA: inhibition of Ang-2-Tie-2 binding, plates coated with Ang-2 (Table 7). How it is done:
The ability of Ang-2 binding compounds to interact with Ang-2 was measured by competition with Tie-2.
For competitive ELISA, human angiopoietin-2 protein and Tie-2-Fc (R&D Systems) were reconstituted without carrier protein. Mouse anti-human Tie-2 (Pharmingen) was used as the primary antibody and goat anti-mouse-IgG1-HRP (Pierce) was used as the secondary antibody. TMB substrate from Pierce was used.
High-binding half-well plates were coated with Ang-2 (100 ng/well) in 50 μl PBS and incubated at 4° C. overnight. Plates were washed three times with washing buffer (0.1% Tween 20, PBS, pH 7.4) and blocked with Superblock (Scytek), 100 μl/well at room temperature (“RT”) for 1 hour. After removing the blocking solution, 50 μl of an Ang-2 binding peptide compound (1 uM and 5× serial dilution) in the presence of 0.25 nM hTie-2-Fc using Superblock as diluent was added and incubated at RT for 2 hours. Plates were washed 3 times with washing buffer. Then, 50 ul of 0.1 ug/ml mouse anti-human Tie-2 diluted in Superblock added and incubated at RT for 1 hour. Following incubation, 50 ul of 1:5,000 dilution of goat anti-mouse IgG-HRP in Superblock was then added and incubated at RT for one hour. After washing 3 times, 50 μl (25 μl TMB+25 μl H2O2) was added, and incubated for 3-5 minutes. Color development was monitored and stopped with 25 μl of 2 M H2SO4. OD450 nm with a correction wavelength of 540 nm was measured.
In Table 7, compounds of SEQ ID NOs: 21-23 are Ang-2 binding peptides alone, not conjugated to either a linker or linker-antibody; compounds of SEQ ID NOs:65 and 66 are Ang-2 binding peptides conjugated to a linker-antibody, where the linker is 4P (“4” PEG) and has the structure of the linker shown in FIG. 2; and compounds 26-63 are Ang-2 binding peptides conjugated to a linker-antibody, where the linker is OP (“O” PEG) and has the structure of the linker shown in FIG. 3. Compounds 24-63 were conjugated to humanized aldolase antibody h38c2 and the linker structures shown in FIG. 2 (4P) and FIG. 3 (OP) when obtainng the data shown below, except where otherwise indicated.
In Table 7, amino acid sequences of peptide compounds are shown with the position of linker OP or 4P indicated in parentheses following the internal amino acid residue to which the linker is attached. For compound of SEQ ID NO:67, the N-terminal “OP” linker is indicated at the beginning of the peptide sequence.

Assay [2] concerns the target T1, human angiopoietin-2 protein. Description: Reverse competition ELISA: inhibition of Ang-2-Tie-2 binding, plates coated with Tie-2-Fc (Table 8). The conditions noted are these: reverse competitive ELISA; peptide linked to antibody h38c2 via 0P linker. How it is done: For reverse competition ELISA, human Tie-2-Fc, angiopoietin-2 protein, biotinylated anti-human Ang-2 antibody, and streptavidin HRP(R&D Systems) and TMB substrate from Pierce were used.
High-binding half-well plates were coated with Tie-2-Fc (50 ng/well) in 50 μl PBS and incubated at 4° C. overnight. Plates were washed three times with washing buffer (0.1% Tween 20, PBS, pH 7.4) and blocked with Superblock, 150 μl/well at RT for 1 hour. Plates were washed three times. Following washing, 50 μl of an Ang-2 binding peptide compound (50 nM, 5× serial dilution) in the presence of 50 ng/ml (0.83 nM) Ang-2 in Superblock were added and incubated at RT for 1 hour. Plates were washed 3 times, 50 μl of 1 μg/mlbiotinylated anti-Ang-2 detection antibody in Superblock was added and incubated at RT for 2 hours. Plates were washed 3 times, and 50 μl of streptavidin HRP (1:200 dilution in Superblock) was added at RT for 20 minutes. Plates were washed 3 times, and 50 μl (25 μl TMB+25 μl H2O2) substrate solution was added and incubated for 20-30 minutes. Color development was stopped with 25 μl of 2 M H2SO4. OD450 nm with a correction wavelength of 540 nm was measured.
IC50 values are provided for the targeting peptide plus linker (as shown in FIG. 3) and the targeting peptide linked to an antibody (P) via the linker of FIG. 3, unless otherwise specified.

The next assay has as its system Co10205 cells. Put plainly: Xenograft studies: subcutaneous tumor growth in nude mice, % T/C (Table 10). Format: in vivo. How it is done:
Co10205 cells were cultured with 10% FBS RPMI medium and 3×10^6 cells in 0.1 ml Hank's balanced salt solution (HBSS) were injected subcutaneously into the upper right flank of nude mice. After 7-9 days, animals were randomized into appropriate number of groups with average tumor size of 200-300 mm^3. Mice were then treated with the requisite amount of compounds of the invention and tumor volumes were measured twice a week. Animals were terminated once their average tumor volume reached 2000 mm^3. Upon termination, tumors were weighed and saved for further histological studies. Treatment efficacy was evaluated by measuring the difference in the tumor volumes of treated versus control groups. Results are reported as % T/C, where % T/C was calculated as: % T/C=(Vt−V0)/(Ct−C0)×100, where, V0 and Vt were the average tumor volumes of treated groups at the beginning and termination of the group. CO and Ct were the average tumor volumes of the control group at the beginning and termination of the group (Table 10).

Another assay addresses T2, Recombinant human Ang-2 (Homo sapiens, UniProt O15123).
T2 sequence (O15123 19-496): T1 sequence (O15123 19-496)
Put plainly: Truncation study: competition with compound 43 linked to linker and h38c2 for binding to coated Ang-2 (Table 9). The conditions noted are these: competition with compound 43-linker-h38c2 at 10 ng/mL, read-out: Ang-2 T IC50. How it is done:
Recombinant human Ang-2 was coated on microtiter plates at 0.5 μg/mL in 100 μL, overnight at 2-8° C. Plates were washed between all steps and all subsequent incubations occurred at room temperature. Plates were blocked with 250 μL per well of SuperBlock for 1-3 hours. Test compounds were pre-mixed with compound 43 linked to linker (as shown in FIG. 3) and h38c2 at 10 ng/mL. Peptide mixtures in 100 μL were then added at the listed final concentrations, the plates sealed, and incubated for 1-2 hours. Bound compound 43 was detected with 100 μL of a 1:20,000 dilution of HRP-labeled anti-human IgG reagent for 1-2 hours. Finally, 100 μL TMB substrate was added for 10 minutes and the reaction stopped with 100 μL of 2 NH2SO4 stop solution.

Where [3] appears, read: P = targeting peptide linked to antibody h38c2 via the linker, read-out: Ang-2 P IC50.
Where [4] appears, read: T = targeting peptide plus linker (compounds 21-23: peptide alone), read-out: Ang-2 T IC50.

Starred links: 1 amine or outer side, 2 acyl side, 3 side chain; linkers in the order of their positions; H or OH if unused. Non-standard residues stand in square brackets, D forms with d. No end group written: not given here. Phe(4-COOH) = N[C@@H](Cc1ccc(C(=O)O)cc1)C(=O)O; AcK = CC(=O)NCCCC[C@H](N[*:1])C(=O)[*:2]; 0P = not defined here

The IC50 is the point on the concentration scale where inhibition reaches its midpoint.

Take “38 (QXYQPLDELDXTXYDQFMLQQG; not fully specified; AcK; K(0P); homocyclohexylalanine; Anti-angiogenic peptide) [Compound 38]”: the values for the IC50 in assay [1] (setting [3]) and in assay [1] (setting [4]) were 703 nM and more than 5000 nM, respectively. Turning to “59 (QRYQPLDELDXTLYDQFMLQQG; K(0P) modified lysine; Anti-angiogenic peptide) [Compound 59]”, the IC50 in assay [1] (setting [3]) was 16.1 nM.

For the substance “62 (Q[AcK]YQPLDE[AcK]DK(0P)TL[Phe(4-COOH)]DQFMLQQG; not fully specified (C-terminus); reading uncertain; also: 0P linker on K11, antibody h38c2 conjugate or reactive form) [Compound 62]”, the IC50 in assay [1] (setting [3]) stood at 41.3 nM. Same read-out and setting: with “(Amido 2-PEG)QAcKY QPL DEL DK(OP)T LYD QFMLQQ G (QXYQPLDELDXTLYDQFMLQQG; amido-2-PEG cap; acetyl-lysine; OP linker at K11; Anti-angiogenic peptide) [Compound 52]” the figure was 18.1 nM. “R^1-QNY QPL DEL DKT LYD QFM LQQ G-R^2 (QNYQPLDELDKTLYDQFMLQQG; also: variable termini R1, R2) [Compound 28]”: the IC50 was 28.6 nM in assay [1] (setting [3]), 175 nM in assay [1] (setting [4]) and 0.15 nM in assay [2]. Further, the “% TC 3 mg/kg 1×/wk” value in the assay on Co10205 cells (3 mg/kg 1×/wk) is listed as 34%. The “% TC 10 mg/kg 1×/wk” value in the assay on Co10205 cells (10 mg/kg 1×/wk) worked out at 38%. Regarding “37 (QXYQPLDEIDXTLYDQFMLQQG; AcK; K(0P) modified lysine; Anti-angiogenic peptide) [Compound 37]”, the IC50 in assay [1] (setting [3]) turned out to be 80 nM. With “QAcKY QPL DEL DK(4P)T LYD QFM LQQ G (QXYQPLDELDXTLYDQFMLQQG; not fully specified; acetyl-lysine; 4P PEG linker to antibody at K11; Anti-angiogenic peptide) [Compound 24, "the second amino acid residue is epsilon acyl lysine ... the linking position (in this case a 4P linker) is the lysine residue 11"]”, the IC50 in assay [1] (setting [3]) worked out at 17.4 nM. The same measure, in the same setting: with “35 (QXYQXLDELDXTLYDQFMLQQG; AcK; hydroxyproline; K(0P); Anti-angiogenic peptide) [Compound 35]” the figure was 16.7 nM. Turning to “31 (Q[AcK]YQPLDELDETK(0P)YDQFMLQQG; reading uncertain; also: printed as Q(AcK)Y QPL DEL DET K(0P)YD QFM LQQ G) [Compound 31]”, the figures for the half-inhibitory concentration (IC50) in assay [1] (setting [3]) and in assay [1] (setting [4]) were more than 1000 nM and more than 5000 nM, respectively. In the case of “25: "compounds of SEQ ID NOs:65 and 66 are Ang-2 binding peptides conjugated to a linker-antibody, where the linker is 4P (“4” PEG)" (QNYQPLDELDXTLYDQFMLQQG; 4P PEG linker conjugated to antibody; Anti-angiogenic peptide) [Compound 25]”, the IC50 in assay [1] (setting [3]) was 40.5 nM. The same measure, in the same setting: the result for “36 (QXYQPLDELDXTIYDQFMLQQG; AcK; K(0P) modified lysine; Anti-angiogenic peptide) [Compound 36]” reads 153 nM. As for “88 (Ac-YQPLDE[AcK]DK(0P)TLYDQFMLQQG-NH2; reading uncertain; also: 0P linker on K9, reactive end group for antibody) [Compound 88]”, the concentration for half-maximal inhibition (IC50) with Recombinant human Ang-2 is more than 4000 nM. Still for that read-out and setting: the result for “89 (Ac-QPLDE[AcK]DK(0P)TLYDQFMLQQG-NH2; reading uncertain; also: 0P linker on K8, reactive end group for antibody) [Compound 89]” reads more than 4000 nM. On the same count and under the same terms, the result for “90 (Ac-PLDEK(Ac)DK(0P)TLYDQFMLQQG-NH2; reading uncertain; also: 0P linker on K7, reactive end group for antibody) [Compound 90]” reads more than 4000 nM.

As to “33 (Q[AcK]YQPLDEK(0P)DETLYDQFMLQQG; reading uncertain) [Compound 33]”, the IC50 in assay [1] (setting [3]) amounted to 88.8 nM. On the same count and under the same terms, with “60 (QHYQPLDELDXTLYDQFMLQQG; not fully specified; K(0P) modified lysine; Anti-angiogenic peptide) [Compound 60]” the figure was 14.4 nM; with “39 (QXYQPLDELDXTXYDQFMLQQG; AcK; K(0P); homophenylalanine; Anti-angiogenic peptide) [Compound 39]”, 258 nM. Regarding “87 (Ac-[AcK]YQPLDE[AcK]DK(0P)TLYDQFMLQQG-NH2; reading uncertain; also: 0P linker on K10, reactive end group for antibody) [Compound 87]”, the concentration for half-maximal inhibition (IC50) with Recombinant human Ang-2 is more than 4000 nM. With “40 (QXYQPLDELDXTXYDQFMLQQG; AcK; K(0P); thienylalanine; Anti-angiogenic peptide) [Compound 40]”, the IC50 in assay [1] (setting [3]) was 358 nM; in assay [1] (setting [4]), more than 5000 nM.

Values taken from patent US8912148B2, “Methods of treating a disease or condition associated with abnormal angiogenesis” (Covx Technology Ireland, Ltd., priority 2006, dated 2014).
